Square brackets hold non-standard residues; d marks the D form. Ends that are not written are not given here. hArg = N=C(N)NCCCC[C@H](N)C(=O)O

Assay [1] has as its target T1, His-tagged, full-length PCSK9 (human, UniProt Q8NBP7 31-692).
T1 construct: The secreted protein is autocleaved into a prodomain and a catalytic/Cys-rich chain that starts at S153; also called His-PCSK9
As to the kind of experiment: TR-FRET competition; His-PCSK9, competitor EGF(A)-Fc. On the technique in general: TR-FRET usually uses a lanthanide donor and a delayed reading to cut background.
Method: (§1) Signal generation in the PCSK9 binding assays was dependent upon the binding interaction to bring into close proximity the His-tag on the PCSK9 and the Fc-tag on the ligand. Anti-His-APC was bound to the His-tag, and anti-Fc-europium was bound to the Fc-tag.
(§2) Compounds were solubilized and dilutions were prepared in DMSO. […] The plate was centrifuged to mix the well contents and allowed to incubate for 30 min. […] The normalized TR-FRET ratios were plotted as a function of the compound concentrations, and the IC₅₀ values were determined using a 4-parameter logistic regression.

A further assay addresses T2, His-tagged PCSK9Δhelix (human, UniProt Q8NBP7 31-152; Q8NBP7 168-692).
T2 construct: Construct M1-Q692 with engineered TEV site, cut by TEV protease; new N-terminus of the catalytic domain is S-A168; also called His-PCSK9Δhelix
Put plainly: TR-FRET competition; His-PCSK9Δhelix, competitor Ab20.

T2 sequence (Q8NBP7 31-152, stated change not applied, chain 1 of 2): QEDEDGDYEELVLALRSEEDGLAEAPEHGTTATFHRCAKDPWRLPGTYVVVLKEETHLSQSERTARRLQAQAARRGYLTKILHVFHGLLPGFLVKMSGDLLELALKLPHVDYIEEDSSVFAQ
T2 sequence (Q8NBP7 other isoform, or with tags, fused parts or gaps mutant, chain 2 of 2): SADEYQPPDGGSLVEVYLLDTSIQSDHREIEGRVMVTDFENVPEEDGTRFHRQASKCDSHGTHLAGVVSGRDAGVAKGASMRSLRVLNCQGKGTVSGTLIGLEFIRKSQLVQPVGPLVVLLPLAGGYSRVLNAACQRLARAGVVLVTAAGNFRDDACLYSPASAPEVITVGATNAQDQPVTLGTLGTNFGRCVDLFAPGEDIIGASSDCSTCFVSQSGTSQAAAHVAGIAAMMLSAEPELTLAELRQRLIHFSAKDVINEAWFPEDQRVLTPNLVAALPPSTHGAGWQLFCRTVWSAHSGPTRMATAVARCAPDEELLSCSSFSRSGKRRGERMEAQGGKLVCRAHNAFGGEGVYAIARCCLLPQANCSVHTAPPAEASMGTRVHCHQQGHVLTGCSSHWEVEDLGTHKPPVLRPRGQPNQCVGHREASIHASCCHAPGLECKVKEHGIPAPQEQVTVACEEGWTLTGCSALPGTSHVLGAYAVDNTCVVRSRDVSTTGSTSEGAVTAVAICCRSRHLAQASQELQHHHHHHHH
T1 sequence (Q8NBP7 other isoform, or with tags, fused parts or gaps limits assumed): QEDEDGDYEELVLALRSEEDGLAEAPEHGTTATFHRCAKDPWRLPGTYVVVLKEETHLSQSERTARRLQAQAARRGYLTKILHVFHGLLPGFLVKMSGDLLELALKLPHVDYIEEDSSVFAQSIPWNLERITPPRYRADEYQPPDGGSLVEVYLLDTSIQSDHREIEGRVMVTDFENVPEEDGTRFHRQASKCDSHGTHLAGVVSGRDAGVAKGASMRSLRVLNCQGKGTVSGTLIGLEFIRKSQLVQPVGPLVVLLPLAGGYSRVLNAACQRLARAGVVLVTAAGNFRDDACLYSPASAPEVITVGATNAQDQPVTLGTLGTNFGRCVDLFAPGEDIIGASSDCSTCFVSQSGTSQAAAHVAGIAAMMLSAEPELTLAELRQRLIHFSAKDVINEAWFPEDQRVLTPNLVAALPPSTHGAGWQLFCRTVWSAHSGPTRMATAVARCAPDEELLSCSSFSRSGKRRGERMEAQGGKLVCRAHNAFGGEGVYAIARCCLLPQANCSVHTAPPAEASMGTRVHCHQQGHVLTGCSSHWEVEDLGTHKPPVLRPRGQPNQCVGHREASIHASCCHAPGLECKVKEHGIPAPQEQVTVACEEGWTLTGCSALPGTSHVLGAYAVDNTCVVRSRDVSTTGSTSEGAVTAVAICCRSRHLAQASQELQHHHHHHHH
Method for His-tagged PCSK9Δhelix: as §1, §2

Take WNLV[hArg]IGLLR (also: further groups not given here, Structure printed only as a drawing) [Compound 220]: the IC50 amounted to 37000 nM in assay [1] and 910 nM with His-tagged PCSK9Δhelix.

B1: Compound 237 (peptide)
peptide: WNLV[hArg]IGLLQ-NH2
modifications: N-terminus assumed
SMILES: CC[C@H](C)[C@H](NC(=O)[C@H](CCCCNC(=N)N)NC(=O)[C@@H](NC(=O)[C@H](CC(C)C)NC(=O)[C@H](CC(N)=O)NC(=O)[C@@H](N)Cc1c[nH]c2ccccc12)C(C)C)C(=O)NCC(=O)N[C@@H](CC(C)C)C(=O)N[C@@H](CC(C)C)C(=O)N[C@@H](CCC(N)=O)C(N)=O
notes: also called WNLV(homoR)IGLLQ-NH2
B1: the half-maximal inhibitory concentration (IC50) in assay [1] is 8800 nM; with His-tagged PCSK9Δhelix, 330 nM.

Consider WNLV[hArg]IGLLN (also: further groups not given here, Structure printed only as a drawing) [Compound 238], for which the IC50 amounted to 7700 nM in assay [1] and 330 nM with His-tagged PCSK9Δhelix.

For the molecule WNLV[hArg]IGLLR (also: end groups and other groups only in drawing, Structure printed only as a drawing) [Compound 202], the half-inhibitory concentration (IC50) in assay [1] was 2600 nM; in the assay with His-tagged PCSK9Δhelix, 340 nM.

Consider WNLV[hArg]IGLLR (also: end groups and other groups only in drawing, Structure printed only as a drawing) [Compound 205], for which the figures for the IC50 (in assay [1]; in the assay with His-tagged PCSK9Δhelix) were 2800 nM and 640 nM, respectively.

B2: Compound 231 (peptide)
peptide: Ac-ESYPGWNLV[hArg]IGLLR-NH2
SMILES: CC[C@H](C)[C@H](NC(=O)[C@H](CCCCNC(=N)N)NC(=O)[C@@H](NC(=O)[C@H](CC(C)C)NC(=O)[C@H](CC(N)=O)NC(=O)[C@H](Cc1c[nH]c2ccccc12)NC(=O)CNC(=O)[C@@H]1CCCN1C(=O)[C@H](Cc1ccc(O)cc1)NC(=O)[C@H](CO)NC(=O)[C@H](CCC(=O)O)NC(C)=O)C(C)C)C(=O)NCC(=O)N[C@@H](CC(C)C)C(=O)N[C@@H](CC(C)C)C(=O)N[C@@H](CCCNC(=N)N)C(N)=O
B2: the IC50 in assay [1] was 1600 nM; with His-tagged PCSK9Δhelix, 17000 nM.

Turning to WNLV[hArg]IGLLR (also: further groups not given here, Structure printed only as a drawing) [Compound 218], the half-maximal inhibitory concentration (IC50) in assay [1] came to 5000 nM; in the assay with His-tagged PCSK9Δhelix, 260 nM.

As for WNLV[hArg]IGLLR (also: further groups not given here, Structure printed only as a drawing) [Compound 221], the half-maximal inhibitory concentration (IC50) in assay [1] came out at 9500 nM; with His-tagged PCSK9Δhelix, 650 nM.

Regarding WNLV[hArg]IGLLR (also: further groups not given here, Structure printed only as a drawing) [Compound 215], the IC50 in assay [1] turned out to be 7000 nM; with His-tagged PCSK9Δhelix, 480 nM.

As for WNLV[hArg]IGLLR (also: further groups not given here, Structure printed only as a drawing) [Compound 210], the results for the IC50 (in assay [1]; with His-tagged PCSK9Δhelix) were 3000 nM and 840 nM, respectively.

As to WNLV[hArg]IGLLR (also: end groups and other groups only in drawing, Structure printed only as a drawing) [Compound 193], the 50% inhibitory concentration (IC50) in assay [1] was at least 50000 nM; with His-tagged PCSK9Δhelix, 1500 nM.

On to WNLV[hArg]IGLLR (also: further groups not given here, Structure printed only as a drawing) [Compound 208], for which the IC50 in assay [1] was determined as 450 nM; in the assay with His-tagged PCSK9Δhelix it was 100 nM.

Regarding WNLV[hArg]IGLLR (also: further groups not given here, Structure printed only as a drawing) [Compound 222], the half-inhibitory concentration (IC50) in assay [1] came out at 21000 nM; with His-tagged PCSK9Δhelix, 1400 nM.

As for WNLV[hArg]IGLLR (also: end groups and other groups only in drawing, Structure printed only as a drawing) [Compound 196], the half-inhibitory concentration (IC50) in assay [1] stood at 7300 nM; with His-tagged PCSK9Δhelix it was 1400 nM.

With WNLV[hArg]IGLLR (also: further groups not given here, Structure printed only as a drawing) [Compound 226], the figures for the IC50 (in assay [1]; with His-tagged PCSK9Δhelix) were 6200 nM and 350 nM, respectively.

As for WNLV[hArg]IGLLR (also: end groups and other groups only in drawing, Structure printed only as a drawing) [Compound 198], the results for the IC50 (in assay [1]; in the assay with His-tagged PCSK9Δhelix) were 1700 nM and 250 nM, respectively.

Consider WNLV[hArg]IGLLR (also: further groups not given here, Structure printed only as a drawing) [Compound 223], for which the 50% inhibitory concentration (IC50) was 21000 nM in assay [1] and 1400 nM with His-tagged PCSK9Δhelix.

On to WNLV[hArg]IGLLR (also: further groups not given here, Structure printed only as a drawing) [Compound 216], for which the values for the half-inhibitory concentration (IC50) (in assay [1]; with His-tagged PCSK9Δhelix) were 6000 nM and 300 nM, respectively.

Turning to WNLV[hArg]IGLLR (also: further groups not given here, Structure printed only as a drawing) [Compound 225], the values for the 50% inhibitory concentration (IC50) (in assay [1]; with His-tagged PCSK9Δhelix) were 27000 nM and 1800 nM, respectively.

For the molecule WNLV[hArg]IGLLR (also: further groups not given here, Structure printed only as a drawing) [Compound 219], the figures for the 50% inhibitory concentration (IC50) (in assay [1]; with His-tagged PCSK9Δhelix) were 9900 nM and 680 nM, respectively.

In the case of Ac-WNLV[hArg]IGLLR-NH2 (also called Ac-WNLV(homoR)IGLLR-NH2) [Compound 192], the results for the IC50 (in assay [1]; in the assay with His-tagged PCSK9Δhelix) were at least 50000 nM and 5300 nM, respectively.

WNLV[hArg]IGLLR (also: further groups not given here, Structure printed only as a drawing) [Compound 224]: the IC50 in assay [1] was 7000 nM; with His-tagged PCSK9Δhelix, 530 nM.

Turning to WNLV[hArg]IGLLR (also: further groups not given here, Structure printed only as a drawing) [Compound 204], the IC50 came out at 3600 nM in assay [1] and 870 nM in the assay with His-tagged PCSK9Δhelix.

With WNLV[hArg]IGLLR (also: end groups and other groups only in drawing, Structure printed only as a drawing) [Compound 199], the IC50 in assay [1] is 980 nM; with His-tagged PCSK9Δhelix, 200 nM.

For the molecule WNLV[hArg]IGLLR (also: further groups not given here, Structure printed only as a drawing) [Compound 212], the results for the IC50 (in assay [1]; with His-tagged PCSK9Δhelix) were 15000 nM and 1600 nM, respectively.

With WNLV[hArg]IGLLR (also: end groups and other groups only in drawing, Structure printed only as a drawing) [Compound 200], the IC50 in assay [1] was determined as 3200 nM; with His-tagged PCSK9Δhelix, 670 nM.

Consider WNLV[hArg]IGLLR (also: end groups and other groups only in drawing, Structure printed only as a drawing) [Compound 201], for which the IC50 stood at 3900 nM in assay [1] and 1000 nM in the assay with His-tagged PCSK9Δhelix.

Take WNLV[hArg]IGLLR (also: end groups and other groups only in drawing, Structure printed only as a drawing) [Compound 197]: the IC50 in assay [1] turned out to be 970 nM; with His-tagged PCSK9Δhelix, 90 nM.

As to WNLV[hArg]IGLLR (also: end groups and other groups only in drawing, Structure printed only as a drawing) [Compound 203], the IC50 in assay [1] came to 21000 nM; in the assay with His-tagged PCSK9Δhelix, 1600 nM.

Take WNLV[hArg]IGLLR (also: further groups not given here, Structure printed only as a drawing) [Compound 207]: the values for the IC50 (in assay [1]; with His-tagged PCSK9Δhelix) were 1300 nM and 320 nM, respectively.

For WNLV[hArg]IGLLR (also: further groups not given here, Structure printed only as a drawing) [Compound 206], the values for the concentration for half-maximal inhibition (IC50) (in assay [1]; with His-tagged PCSK9Δhelix) were 1800 nM and 870 nM, respectively.

As for WNLV[hArg]IGLLR (also: further groups not given here, Structure printed only as a drawing) [Compound 213], the figures for the IC50 (in assay [1]; with His-tagged PCSK9Δhelix) were 3800 nM and 200 nM, respectively.

As for WNLV[hArg]IGLLR (also: further groups not given here, Structure printed only as a drawing) [Compound 214], the IC50 in assay [1] is 3000 nM; with His-tagged PCSK9Δhelix, 210 nM.

For the molecule WNLV[hArg]IGLLR (also: further groups not given here, Structure printed only as a drawing) [Compound 211], the IC50 in assay [1] is 14000 nM; with His-tagged PCSK9Δhelix it was 3800 nM.

For WNLV[hArg]IGLLR (also: end groups and other groups only in drawing, Structure printed only as a drawing) [Compound 194], the results for the 50% inhibitory concentration (IC50) (in assay [1]; in the assay with His-tagged PCSK9Δhelix) were at least 50000 nM and 1900 nM, respectively.

With WNLV[hArg]IGLLR (also: further groups not given here, Structure printed only as a drawing) [Compound 209], the IC50 in assay [1] is 2900 nM; in the assay with His-tagged PCSK9Δhelix it was 450 nM.

For WNLV[hArg]IGLLR (also: further groups not given here, Structure printed only as a drawing) [Compound 217], the half-maximal inhibitory concentration (IC50) in assay [1] is 4100 nM; in the assay with His-tagged PCSK9Δhelix, 390 nM.

Broadly, the IC50 is the concentration at which inhibition is half-maximal.
